According to publication PMC7594496:

Key:
Test in all cases: liposome recruitment assay (liposome flotation, gel band quantification)
[1] = target: Sec23–Sec24 complex (WT), P15303;P40482; details: GMP-PNP, 400 nm unilamellar liposomes, read off a plot
[2] = target: Sec13–Sec31 complex (WT), Q04491;P38968; details: GMP-PNP; 400 nm unilamellar liposomes; parent: est. 1.1; read off a plot
Sar1 = Sar1 (UniProt P20606); details: GMP-PNP; 400 nm unilamellar liposomes; parent: est. 0.98; read off a plot
Chain of Sar1 (P20606 whole entry): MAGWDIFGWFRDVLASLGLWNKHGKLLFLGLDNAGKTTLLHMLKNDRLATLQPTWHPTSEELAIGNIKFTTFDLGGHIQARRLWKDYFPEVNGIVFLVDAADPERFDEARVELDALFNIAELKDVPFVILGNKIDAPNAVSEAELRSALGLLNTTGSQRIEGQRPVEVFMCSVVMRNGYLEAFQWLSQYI

Chain of Sec23–Sec24 complex (WT) (P15303 whole entry, stated change not applied, the tested form may be a part): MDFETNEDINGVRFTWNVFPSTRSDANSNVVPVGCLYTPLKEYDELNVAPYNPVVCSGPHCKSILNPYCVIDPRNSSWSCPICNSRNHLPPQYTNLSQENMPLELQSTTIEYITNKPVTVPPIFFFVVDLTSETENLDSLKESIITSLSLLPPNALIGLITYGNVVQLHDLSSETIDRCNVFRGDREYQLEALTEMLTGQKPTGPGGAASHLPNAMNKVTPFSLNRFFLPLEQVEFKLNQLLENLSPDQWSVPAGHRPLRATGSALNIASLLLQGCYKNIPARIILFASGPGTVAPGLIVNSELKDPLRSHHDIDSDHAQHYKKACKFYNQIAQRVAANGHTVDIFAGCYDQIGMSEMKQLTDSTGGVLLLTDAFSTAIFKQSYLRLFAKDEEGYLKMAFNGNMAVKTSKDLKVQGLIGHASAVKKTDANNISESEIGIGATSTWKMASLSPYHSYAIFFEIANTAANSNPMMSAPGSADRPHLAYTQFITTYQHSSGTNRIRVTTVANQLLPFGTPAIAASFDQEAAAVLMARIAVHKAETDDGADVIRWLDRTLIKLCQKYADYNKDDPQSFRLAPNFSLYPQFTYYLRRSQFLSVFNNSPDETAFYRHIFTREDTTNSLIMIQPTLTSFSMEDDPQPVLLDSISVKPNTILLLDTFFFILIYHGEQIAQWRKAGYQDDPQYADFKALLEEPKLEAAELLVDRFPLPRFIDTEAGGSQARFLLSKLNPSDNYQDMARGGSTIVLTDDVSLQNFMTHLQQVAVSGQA
Chain of Sec23–Sec24 complex (WT) (P40482 whole entry, stated change not applied, the tested form may be a part): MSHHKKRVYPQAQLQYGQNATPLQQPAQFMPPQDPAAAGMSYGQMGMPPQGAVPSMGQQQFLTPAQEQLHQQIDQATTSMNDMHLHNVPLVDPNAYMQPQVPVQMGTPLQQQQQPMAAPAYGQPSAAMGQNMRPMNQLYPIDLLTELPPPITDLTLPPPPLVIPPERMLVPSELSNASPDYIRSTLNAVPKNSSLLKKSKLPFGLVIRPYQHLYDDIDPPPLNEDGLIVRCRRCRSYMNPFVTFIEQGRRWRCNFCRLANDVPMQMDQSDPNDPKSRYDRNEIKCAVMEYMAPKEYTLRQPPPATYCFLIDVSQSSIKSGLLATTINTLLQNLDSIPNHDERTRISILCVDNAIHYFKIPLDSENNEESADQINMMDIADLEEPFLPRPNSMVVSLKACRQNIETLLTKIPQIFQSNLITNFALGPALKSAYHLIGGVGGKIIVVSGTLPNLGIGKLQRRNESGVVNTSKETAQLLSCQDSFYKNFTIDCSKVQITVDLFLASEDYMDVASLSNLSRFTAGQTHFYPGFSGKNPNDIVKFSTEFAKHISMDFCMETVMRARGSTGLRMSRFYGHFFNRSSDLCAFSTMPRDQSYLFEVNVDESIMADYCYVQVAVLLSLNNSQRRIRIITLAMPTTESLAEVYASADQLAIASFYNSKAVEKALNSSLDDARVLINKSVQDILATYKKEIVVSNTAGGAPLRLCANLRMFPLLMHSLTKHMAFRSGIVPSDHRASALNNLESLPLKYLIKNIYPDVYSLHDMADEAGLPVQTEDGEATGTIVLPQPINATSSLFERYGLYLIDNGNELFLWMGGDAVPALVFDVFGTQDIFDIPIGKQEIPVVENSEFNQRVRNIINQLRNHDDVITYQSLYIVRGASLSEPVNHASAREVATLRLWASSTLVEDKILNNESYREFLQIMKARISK
Chain of Sec13–Sec31 complex (WT) (Q04491 whole entry, stated change not applied): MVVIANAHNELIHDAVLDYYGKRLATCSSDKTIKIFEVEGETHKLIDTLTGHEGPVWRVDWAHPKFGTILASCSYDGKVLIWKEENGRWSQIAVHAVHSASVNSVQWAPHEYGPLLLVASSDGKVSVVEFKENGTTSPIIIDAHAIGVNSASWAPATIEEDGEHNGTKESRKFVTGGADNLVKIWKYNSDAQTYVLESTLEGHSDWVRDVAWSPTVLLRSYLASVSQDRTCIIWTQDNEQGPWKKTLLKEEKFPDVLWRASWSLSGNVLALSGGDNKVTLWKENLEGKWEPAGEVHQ
Chain of Sec13–Sec31 complex (WT) (P38968 whole entry, stated change not applied): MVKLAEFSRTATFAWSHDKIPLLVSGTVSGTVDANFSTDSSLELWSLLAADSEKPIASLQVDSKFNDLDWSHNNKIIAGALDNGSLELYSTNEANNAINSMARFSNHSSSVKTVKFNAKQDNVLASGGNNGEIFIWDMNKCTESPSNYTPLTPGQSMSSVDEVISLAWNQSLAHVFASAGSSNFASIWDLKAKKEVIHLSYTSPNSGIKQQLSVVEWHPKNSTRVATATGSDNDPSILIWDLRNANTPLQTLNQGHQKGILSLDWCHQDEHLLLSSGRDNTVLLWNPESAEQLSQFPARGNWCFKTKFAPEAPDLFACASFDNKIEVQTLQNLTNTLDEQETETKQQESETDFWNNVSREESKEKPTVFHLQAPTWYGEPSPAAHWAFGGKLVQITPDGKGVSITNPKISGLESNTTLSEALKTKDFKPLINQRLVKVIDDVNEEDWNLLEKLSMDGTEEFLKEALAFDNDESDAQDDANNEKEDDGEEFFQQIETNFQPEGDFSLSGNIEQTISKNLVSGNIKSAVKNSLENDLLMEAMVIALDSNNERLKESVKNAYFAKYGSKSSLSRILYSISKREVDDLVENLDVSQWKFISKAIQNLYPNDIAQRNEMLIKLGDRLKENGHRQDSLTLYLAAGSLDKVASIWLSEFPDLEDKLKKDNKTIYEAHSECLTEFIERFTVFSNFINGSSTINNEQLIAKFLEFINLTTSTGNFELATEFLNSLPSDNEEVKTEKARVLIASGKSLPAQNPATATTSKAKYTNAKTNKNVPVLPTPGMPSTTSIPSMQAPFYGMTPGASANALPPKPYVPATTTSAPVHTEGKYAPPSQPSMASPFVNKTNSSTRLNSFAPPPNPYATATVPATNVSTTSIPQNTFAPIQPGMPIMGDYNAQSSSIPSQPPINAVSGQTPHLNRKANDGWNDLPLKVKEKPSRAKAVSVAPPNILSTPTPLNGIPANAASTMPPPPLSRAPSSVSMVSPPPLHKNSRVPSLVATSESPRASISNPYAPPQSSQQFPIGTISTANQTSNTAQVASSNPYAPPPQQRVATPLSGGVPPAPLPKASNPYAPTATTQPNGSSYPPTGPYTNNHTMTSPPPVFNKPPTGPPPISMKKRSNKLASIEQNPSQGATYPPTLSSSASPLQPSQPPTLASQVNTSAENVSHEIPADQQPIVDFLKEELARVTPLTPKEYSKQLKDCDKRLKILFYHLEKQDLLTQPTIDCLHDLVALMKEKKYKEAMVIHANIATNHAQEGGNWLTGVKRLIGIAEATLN
Chain of Sec13–Nhis-Sec31 complex (Q04491 whole entry, stated change not applied): as the sequence (Q04491 whole entry, stated change not applied) above
Chain of Sec13–Nhis-Sec31 complex (P38968 whole entry, stated change not applied): as the sequence (P38968 whole entry, stated change not applied) above

Substance: Sec13–Sec31 complex (WT) (from UniProt Q04491;P38968) ΔPPP (glycine/serine substitution of all six PPP motifs plus an additional PPAP motif; residues not printed)
- other: Ratio Sec31:Sec23 ([1]; parent: est. 1.1): 1.2

Substance: Sec13–Nhis-Sec31 complex (from UniProt Q04491;P38968) ΔPPP (glycine/serine substitution of all six PPP motifs plus an additional PPAP motif; residues not printed)
- other: Ratio Sec31:Sec23 ([1]; parent: est. 0.91): 0.91

Substance: Sec23–Sec24 complex (WT) (from UniProt P15303;P40482) Δcharge (charge reversal of a negatively charged surface adjacent to the gelsolin domain of Sec23; residues not printed)
- other: Protein ratio Sec31:Sec23 [2]: 0.43
- other: Protein ratio Sec23:Sar1 (Sar1): 1.1
